This is an account of results in patent US20250179208A1.

For the test, the target named is CD26 protein (recombinant human CD26) (human) (UniProt P27487). Put plainly: BLI (Octet QKe), CD26 amine-coupled on AR2G sensor, antibody at 181.8 nM. In general terms: Biolayer interferometry detects binding as a change in optical thickness at a sensor tip.

B1: 17G108 (anti-CD26-CD3 chimeric bispecific antibody derived from No. 160 mouse antibody) (bispecific antibody)
chain: DIVMTQAAPSVPVTPGESVSISCRSSKSLLHSNGNTYLYWFLQRPGQSPQLLISQMSNLASGIPDRFSGSGSGTAFTLRISRVEAEDVGVYYCMQHLEYPFTFGSGTKLEIKGGGGSGGGGSGGGGSEVQLQQSGAELVKPGASVKLSCTASGFNIKDNYMNWVKQRPEQGLEWIGRIDPANGNPKYDPKFQGKATITADTSSNTAYLQLSSLTSEDTAVYYCTRWIYYYGSRYEWYFDVWGAGTTVTVSSGGGGSDVQLVQSGAEVKKPGASVKVSCKASGYTFTRYTMHWVRQAPGQGLEWIGYINPSRGYTNYADSVKGRFTITTDKSTSTAYMELSSLRSEDTATYYCARYYDDHYCLDYWGQGTTVTVSSGGGGSGGGGSGGGGSDIVLTQSPATLSLSPGERATLSCRASQSVSYMNWYQQKPGKAPKRWIYDTSKVASGVPARFSGSGSGTDYSLTINSLEAEDAATYYCQQWSSNPLTFGGGTKVEIK
Take B1: the Response stood at 0.0395.
